As usually defined, the Kd is a measure of binding affinity in units of concentration. For orientation: stoichiometry N means a count of units in the complex or per binding partner.

Data set [1] concerns the target YnfE signal peptide (Salmonella enterica). Conditions: cited from earlier work.
Data set [2] concerns the target T25-DmsD fusion protein (S. enterica DmsD attached to the C-terminus of T25) (Salmonella enterica serovar Typhimurium) (UniProt Q8ZPK0). Kind of data set: two-hybrid; bacterial adenylate cyclase two-hybrid (spYnfE-T18 and T25-DmsD) in E. coli MAE01 (ΔcyaA); cultures at 30 °C, β-galactosidase activity in Miller units, shown relative to the native pair.
Data set [3] shares this target. Described as above. The source holds these as a separate data set.
Data set [4] concerns the molecule itself. Kind of data set: cross-linking; 1 % (v/v) formaldehyde, purified DmsD (2 µM) with or without synthetic peptide 2 (100 µM), 30 min, 50 mM HEPES pH 7.6, 150 mM KCl; SDS-PAGE and anti-DmsD immunoblot. For orientation: Immunoblotting shows a protein as a band on a membrane.

Like-named read-outs stand apart in the source and are kept apart here.

YnfE signal peptide (Salmonella enterica), sequence (P77374 1-43): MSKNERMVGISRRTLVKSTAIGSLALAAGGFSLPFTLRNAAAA

For the molecule DmsD (from UniProt Q8ZPK0), the Kd in data set [1] is 45 nM. For the molecule “spYnfE-T18 fusion (42-residue YnfE Tat signal peptide at the N-terminus of T18) (domain or fragment)”, the β-galactosidase activity (positive control, 100 %) came to 1720 Miller units in data set [2] and 1650 Miller units in data set [3].

B1: Recombinant S. enterica DmsD, purified, hexa-histidine tag removed (natural protein, Salmonella enterica serovar Typhimurium, UniProt Q8ZPK0 1-204, looked up)
chain: MTTFLQRDDFAVTARVLGALFYYSPESHETAPLVQALLNDDWQAQWPLDAEALAPVAAMFKTHSEESLPQAWQRLFIGPYALPSPPWGSVWLDRESVLFGDSTLALRQWMRENGIQFEMQQNEPEDHFGSLLLLAAWLAENDRHHECEQLLAWHLFPWSSRFLDVFIDHAGHPFYQALGQLARLTLAQWQAQLIIPVAVKPLFR
notes: DmsD of S. enterica serovar Typhimurium, 204 residues; The forward primer encodes ENLYFQG before the first methionine; also called purified DmsD; pQE-His-TEV-DmsDst; not shown: His6, N-terminal, cleaved
With B1, in data set [4], the “stoichiometry N” value was found to be 2.

The record behind these values is article PMC5203670, “Biosynthesis of selenate reductase in Salmonella enterica: critical roles for the signal peptide and DmsD” (Microbiology, 2016).
